This is an account of results in patent US20210285965A1 (SEATTLE CHILDREN S HOSPITAL D B A SEATTLE CHILDREN S …, published 2021).

Holding throughout (test): immunoaffinity peptide capture on mAb-Protein G magnetic beads, read by SRM-MS (immuno-SRM); ELISA screening
Test [1] has as its target T1, DOCK8 1272-1283 signature peptide (TSGIVLSSLPYK).
T1 construct: Endogenous tryptic peptide of DOCK8 from digested dried blood spots of patients and normal controls
T1 peptide: TSGIVLSSLPYK

Test [2] addresses T2, SH2D1A 19-32 signature peptide (LLLATGLDGSYLLR).
T2 construct: Tryptic peptide of SH2D1A (SAP); also called SAP
T2 peptide: LLLATGLDGSYLLR

Test [3] concerns the target T3, CYBB 509-521 signature peptide (TLYGRPNWDNEFK).
T3 construct: Endogenous tryptic peptide of CYBB from digested dried blood spots of patients and normal controls
T3 peptide: TLYGRPNWDNEFK

Test [4] addresses T4, ADA 93-101 signature peptide (EGVVYVEVR) (human).
T4 peptide: EGVVYVEVR

Test [5] concerns the target T5, CD42 128-137 signature peptide (LTSLPLGALR).
T5 construct: Endogenous tryptic peptide of CD42 (glycoprotein Ib) from digested dried blood spots of patients and normal controls
T5 peptide: LTSLPLGALR

Test [6] addresses T6, CD56 122-130 signature peptide (NAPTPQEFR).
T6 construct: Endogenous tryptic peptide of CD56 (NCAM) from digested dried blood spots of patients and normal controls
T6 peptide: NAPTPQEFR

Test [7] addresses T7, CD42 154-165 signature peptide (TLPPGLLTPTPK).
T7 construct: Endogenous tryptic peptide of CD42 (glycoprotein Ib) from digested dried blood spots of patients and normal controls
T7 peptide: TLPPGLLTPTPK

For test [8], the target named is T8, ATM 1561-1572 signature peptide (LLDPFPDHVVFK).
T8 construct: Endogenous tryptic peptide of ATM from digested dried blood spots of normal controls
T8 peptide: LLDPFPDHVVFK

B1: anti-DOCK8 1272 monoclonal antibody (antibody, V domains shown)
VH: EVQLQQSGTVLARPGASVKMSCKASGYTFTSYWMHWVKQRPGQGLEWIGAIFPGNSNTRYNQKFKGKAKLTAVTSASTAYMELSSLTNEDSAVYYCADDNAFDYWGQGTTLTVSS
VL: QIVLTQSPAIMSASPGEKVTMTCSASSSVSSRYLHWYQQKSGASPKLWIYGTSNLSSGVPDRFSGSGSGTSYSLTISSVETEDAATYYCQQYHSDPFTFGTGTKLEIK
notes: Hybridoma antibody; also called Hybridoma SJSH5-1C2-2E
For B1, the binding result in test [1] is “binds”.

B2: anti-SH2D1A (SAP) 19 monoclonal antibody (antibody, V domains shown)
VH: QSLEESGGRLVTPGGTLTLTCTVSGFSLSSYDMSWVRQAPGKGLEWIGFGNTGGSTYYASWAKGRFTISRTSTTVDLRMTSLTAADTATYFCTRGAPGWITTNMWGPGTLVTVSL
VL: QVLTQTPSPVSAAVGGTVTISCQSSQSVYRNKCLAWYQQKPGQPPKLLIYKASTLASGVPSRFSGSGSGTQFTFTISDLECDDSATYYCVGYYNTNTNTTTFGGGTEVVVKG
notes: Full heavy and light chains without leader; also called Anti-SH2D1A 19; clone EB0612B-2F4-H1 / EB0612B-2F4-K1
Consider B2, for which the binding result in test [2] is given as “binds”.

B3: anti-CYBB 509 monoclonal antibody (antibody, V domains shown)
VH: QSLEESGGGLVKPGASLTLTCTASGFSFSRSYWICWVRQAPGKGLEWLGCIYAGSSGSTYYASWAKGRFTISKTSSTTVTLQMTSLTAADTATYFCARGNNNIIILDLWGPGILVTVSS
VL: AVLTQTPSPVSAAVGGTVTISCQASQSVYNNNALSWYQQKPGQPPKLLIYDASDLAPGVPSRFSGSGSGTQFTLTISDVQCDDAATYYCLGGYSVSSDNAFGGGTEVVVNG
notes: Full heavy and light chains without leader; also called clone EB0611C-1E12-H2 / EB0611C-1E12-K2
Take B3: in test [3], the binding result was “binds”.

B4: anti-ADA 93 monoclonal antibody (antibody, V domains shown)
VH: QEQLEESGGDLVKPGSSLTLTCTASGFSFTNSDWECWVRQAPGKGLEWIACIYGDSRSGYYASWAKGRFTISKTSSTTVTLQMTTLTAADTATYFCARNLGSLWGPGTLVTVSS
VL: QVLTQTPSSVSAAVGGTVTINCQSSQNVVFNNRLAWFQQKPGQPPKLLIYQASTLASGVPPRFKGSGSGTQFTLTISDLECDDAATYYCLGSYDCSSTDCNTFGGGTEVVVKG
notes: Full heavy and light chains without leader; also called clone EB0608A-3C12-H2 / EB0608A-3C12-K2
As for B4, in test [4], the binding result is “binds”.

B5: anti-CD42 128 monoclonal antibody (antibody, V domains shown)
VH: QAYLQQSGAVLVRPGASVKMSCKASGYTFSSYNIHWVKQTPRQGLEWIGGIYPGNGDTSYNKKFKDKATLTVDKSSNTAYMHLSSLTSEDSAVFFCASDGTRYWGQGTTLTVSS
VL: EVVMTQTPLTLSVTIGQAVSISCTSSQSLLASDGKTYLNWLLQRPGQSPKRLIYLVSKLDSGVPDRFTGSGSGTDFTLKISRVEADDLGVYCCWQGAHSPLTFGAGTRLELK
notes: Hybridoma antibody; also called Hybridoma SJSH4 3B8-1b
For the molecule B5, in test [5], the binding result is given as “binds”.

B6: anti-CD56 122 monoclonal antibody (antibody, V domains shown)
VH: QSLEESGGDLVKPGASLTLTCKASGLDFSSNYYMCWVRQAPGKGLEWIACIYSSSLNTWYASWAKGRFTISKSTSLHTVTLQMTSLTAADTATYFCTRGGGVYVGADYGFYFYLWGPGTLVTVSS
VL: DIVMTQTPSSVEAPVGGTVTIKCQASQSIDSWCAWYQQKPGQPPKLLIYKASTLESGVPSRFKGSGSGTEFTLTISDLECADAATYFCQSYYPTTGSDNAFGGGTEVVVKG
notes: Full heavy and light chains without leader; also called clone EB0608C-3H4-H2 / EB0608C-3H4-K2
As to B6, the binding result in test [6] is on record as “binds”.

B7: anti-CD42 154 monoclonal antibody (antibody, V domains shown)
VH: EVQLQQSGPELVKPGASVKMSCKASGYTFTGYNMHWVKQSHGKSLEWIGDINPKTGENSYNQKFKGKATLTISKSSSTAYMELRSLTSEDSAVYYCVRWGVYYLDHWGQGTTLTVSS
VL: DIVMTQAAFSNPVTLGTSASISCRSTKSLLYSDGITYLYWYLQRPGQSPQLLIYRMSDLASGVPDRFSGSGSGTDFTLRISRVEAEDVGVYYCAQMVEFPPTFGGGTKLEIK
notes: Hybridoma antibody; also called Hybridoma SJSH4-1H11c
With B7, the binding result in test [7] was “binds”.

B8: anti-ATM 1561 monoclonal antibody (antibody, V domains shown)
VH: QEQLVESGGGLVQPGGSLTLTCKASGFDFSSGGMCWVRQAPGKGLEWIGCIVNGDGSTYFATWAKGRFTITRTSSTTVTLQMTSLTAADTATYFCWRYWALWGPGTLVTVSS
VL: IVMTQTPSSKSVPVGGTVTINCQASESLYNNNRLAWFQQKPGQPPKLLIYSASTLASGVPDRFSGSGSGTQFTLTISDVVCDDAATYYCVGGRSRVTDGIAFGGGTEAVVKG
notes: Full heavy and light chains without leader; also called clone EB0608D-4A10-H4 / EB0608D-4A10-K1
In the case of B8, the binding result in test [8] is on record as “binds”.
